This passage reports protease stability score results from the NTF2 design screens of Basanta et al. (2020).

A short description of this series: protease stability score; higher = more stable; yeast display proteolysis, trypsin and chymotrypsin.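 Note: relative to predicted unfolded state with 0 unfolded-like and 1 meaning tenfold more protease.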
In the case of “DEDREAIELLVRLLITAHETGDEKILWDLMDPNVRYHQGNFELHGREEIMELESRLRKHLGINHISFRLHDMQHIGDKLILHGSLMFRIGDKEHHTEVDIIVIKINGKWLIESIFIR”, the protease stability score was found to be 1.57.
Then “DEDREAMEELVRRTLKASSTGDEELSDQLMDPNTRIEVNGKHLIGREMWIKFLVELRIIFHEVHVHDVRSVGDKVDADVHVIFELRINGKRIDIETRVTFYFRKINGRWLVKSIRFE”, with 1.07; and “DEDREDARKIFHDFIRALNTGDEDTLAELLDPNTKIHIGEFNLIGMERVREWLQRVDHTHTHIKVRRVDVVNGQIIMDTETEIHIHIGDFTLEIQTRTEMVILKINGRWFIKRVNLI”, with 1.72.
Then “DEDREDVKKYIEDLFHHLETGDFKEIEKNFDPNVRIFIDGRTIHGREEMVRWAEEMRYKLHEVRLHEVETQGEKIHIDLEIDIEIRIGDKRRRIRTRVIIFARKINGRWYVHQTDFR”, with 2.71; and “DEDREEAIKTVEETVELIATGDFEKFEELVDPNVRIDVNGVDVIGREDWRRRVEEIRISMRDSDIKRVRSVNGVMHVDGRIELEVHVNGKTKNVNLRTHWYIVKINGRWLIHSVHFV”, with 1.99; and “DEDREFAERVMKLLLHSLITGDFRRIHELADPHMRLHQGDFNIIGWDTIYEIMFRLGFRLDDFRIEHMDVVDGRVFLQGRSDGTINGRRTRTNVNIIIEKIDGRWYLRENEVR”, with 1.08.
As to “DEDREFLIEMIELFMKFLLTGDWEQFAHLADPNDRFNVNGRDNHGREVWIKEVEEMRIHSLHIEDQDAFNGVIHVDFRVEGHFDGRTHIQKVEIHIRIVNGRVKSVEHHIH”, the protease stability score worked out at 0.575.
Then “DEDREHVERIVDILIHSFKTGDESFLENYLDPNARLEVGDKTHHGREEVKKLVIRWWHELGIKHVHVDKKTTIDGRIIIHLTILFNGRRFETELIWVIVDGVINKVDIRIQER”, with 1.45; and “DEDREHVKWMIEKEIHAWRTGDEDELRKMLDPNVKFEQGDKRIHGREILMERMRKLGADHVEFQLHDIELQGEKVLLFIELRIHVNGRDIRLEIIIYLDKVNGQWHVRHYEIR”, with 0.745.
The sequence “DEDREHVLKVTRLIWRAWMTGDFERISHLIDPNAKIDINGVDLHGREKLRHHLERVDYMHLESEHERRIDIIGDFVRIEFRFTVILIVNGQEVRDTTHVEIRARIVNGRLTEVYVHEH” returned a protease stability score of 1.55.
For “DEDREIAERFLRRWSHDTLTGDEDSLRDMVDPNVRLEYGDFTFHGREEWLKFFREIRVEDSHVHHMHVFNGQARIKLDFRVRFNGKELRTKVTLSVDKVDGRWIIRSIHFE”, the protease stability score came to 1.64.
Then “DEDREIMERFIHILAEVWRTGDEHSLERLFDPNYKTLYDGRDVHGRETHIEILRTLGLERIEVRIKRFRVQGDKLHVNVELDVNGRTTEVEIRWRKIDGRWINHDMEIE”, with 1.39; and “DEDREMLEELTRRLAHSVETGDEDHHSHLADPNTRETIHINGRTFEHHGWEIWSELLTRLGADHMHLDRVHVVNGRVEIRSRVHVGDKEYKVHILMVVINGRLKEVSVHIH”, with 0.721.
For “DEDREMVEEVIRERLEDLKTGDWKKLADLADPHVRLDVGDKEYHGREEFTKTFTDILRILGHSNIQTDLKHIDFFDGRLDVHQTVHIGDKTIHHQILFHKFDGKWKITEMRITIR” the value was 0.928; for “DEDREQAEEVIRSITEAMQTGDEHLWERMIDPNVRVIIDGRTYHGRLAWDLFRERYDVVHSSDSRIRHLRTYNGRVEVITQLRLDVEINGQRFETSMETHLIVLKFNGKWTVRRMEIH”, 1.67.
As to “DEDREQYREIMSHIWHSIHTGDEETQEDMADPDARFIIGDKTFIGWKQFYEKLREIRIHIDHVHIRHIEVQGDKFRVEFQIHRTIIYNGRNLHETTEAETHLHVVNGRLHSWSFRVR”, the protease stability score stood at 0.885.
Then “DEDRERSEEIAKLILRSWLTGDERLLEELFDPHARVHINGKEFHGMEKFTEFSRHIRMDRVIIHDVKLIGDKMHIEQEIIITFDGRHLHVRSIIIVLKVNGQWVSRSLEIH”, with 1.16; and “DEDRERSKKEFDTLVKSELTGDEDSYRRMADPDTRLVVGDKEYHGRSAMRYFLRQVDHMEHVIIRRVEYQGDYAHFDITVHGDINGRRDTVHFHLVMYKIDGRWVVHELIIK”, with 1.32; and “DEDRESARWLFEIHSRVFETGDEDSLHRLFDPNARFDINGREVHGMDLWIHLLKHIRVSVKDMKIRRHKSVNGRLETDYDSTLSFHVGDKTIELEVRVILVSHKVNGRWEIKEEIVH”, with 1.24.
“DEDRESEEKAIKTWWHMVETGDEKLFKKLADPDTKMVINGVEKHGMETVHEFLNRVDHIRQFDIEDHRFYNGRLELHIRVDVEFNGRRHETERRVIASKVNGRWLLKEVIVH” had a protease stability score of 0.689.
For “DEDRESFEEVSRLLMEDIKTGDEDSWKKLADPHDRIVVGDKTSIGMETSIHLLRVLIHHIRFKDSKIKDIHSQGDKLHLETHLHGEVNGVEYHTFSHIVVRKVDGKWHLESVIII”, the protease stability score was 1.
For “DEDRESMLEHFRLLVEQTKTGNEESTEENIDPHVRLIFNGQEYHGRHEVARYLVEIWRRVDHVRIHLTHMEVYDGVMEIHGQYHLDFDGRHVTHEFRIIFTKVDGRWRIHELRVQ” the value was 1.38; for “DEDREVAENMVRLFIHFLLTGNEERLNQYFDPHTLLIVGDKRYHGMEESNKWIVELWTERVEIRHIEVDYYGDKVHATISGHHVGIVDGKRIETQVDFHFRIDKIDGRWVAREVEIRHD”, 2.06.
For “DEDREWIERFNRILIESLTTGDEHTLKELIDPNARLVINGRDIHGREEFVRLLSEMGVKHFHVHDVKVVGNKAVTRGILYFNGREYDVDVFTRKIDGRWLYESLEVK” the value was 2.02.
Turning to “DEDRFETELAVDLWLRTLETGDEHFLHRLADPRVQLEYGNFHYHGRHEFLHWFHDLKRKYKNLRVDIRDVRDIDGRIILHTELKQGDKHIESKVYMEKYDGRWLIKSYEIR”, the protease stability score stood at 0.971.
Turning to “DEDRHDVKRWLEFLVKLMETGDEEVLRTLADPNTRVDINGRDNHGWESVVTVLRELGANHIHHIEIKHLHIINGRVHIDMRVHRIQGDKTLDFDIHLHANKYNGRWHLKSVQIH”, the protease stability score came out at 1.24.
Then “DEDRHYIEQALEILEHNIQTGNWEIIARLLDPNMRLHIGDKDIHGREESADIIRHWIHRFPNLRVRIDHFEIYGNKVIFRGTMDFDGQRHDISIFSHKVNGRWLIKSIEYR”, with 1.59.
Turning to “DEDRIISEEAAKLFLHLLLTGDEKVFDEYLDPRTRLIIGDKEFIGRETLRKTMQEFRHKAGIDHMHIRDSRIELIDGRVVQHLEIHVRFNGKSEDRVIHVFIEKINGRWHIHFVEVKID”, the protease stability score came out at 1.53.
Then “DEDRKEAERIARQTLHDLRTGNEDMLTKLLDPHARIDVNGVDNIGWEIIVKHVKERRHQWRIHHEHWRDYHFINGVIHIDLEVHIRVDGVDIRTETRVHILIINGRLREIRVEVD”, with 0.772.
Then “DEDRKEMEEILRLYLEAFLTGDEKLLRHLVDPHVKLDINGVRLHGMDLLIKLLIHEARFFKGMKVEIRIHRVHVQGDKVENDTELILIFDGREFRRRTFLLWLKIDGRWLLESERIE”, with 1.45; and “DEDRKHIHHMFELWVHFLHTGNEHQLINLVDPHVKLEIGDKHHHGWEQLETFERAFKKEFKHMKIRFELTDIRLINGRMEIDGRDHLHIGDKTIERHLHLVVTKVDGRWQIHSVIVD”, with 1.48.
As to “DEDRKHMEQAITLLKRLWETGNEEDILKNLDPNVRFEVGEWVDHGRRSIEIFRERFKNLRVHDTRHKDRDVVDGRAHLHGEYNGEINGRLINTHVILVIEKVNGRWYFESIHIH”, the protease stability score worked out at 1.19.
“DEDRKHREHLSELFQKLWLTGDWRTLWRLLDPHVRLEVLIDGKRIEKIGRENISEMLHRFLEFLGVDHRELHDMEIQGDKVHLDERIHYNGREQKLHIEFKFINGRMHEIKIRYE” showed a protease stability score of 1.58.
For “DEDRKHWETLLKIAFHLFRTGDEEKWERMFDPHARLHINGKDIHGREDIVHFLQEHLDHLWIEDVKVERMSVYNGVLHVDIRIHYRQGDKVYDVESSIDNIVIDGKSHRIRFDFH” the value was 1.26.
Then “DEDRKIFKLVFEITKHAWETGDEEHLDRLLDPNTRIEIGDKILHGREHIEEWVDRVDHLHLHHFRLDDYRYQGDKAIIHGHVNGTSVIDGRSERYTSTIDFIVLKVNGRWRLHSVRVT”, with 1.41; and “DEDRKLFTEATHRLNNVLETGDEDSLLRLMDPNTRYKVNGVELIGREMVKHMFRILMHHWRVKSHDYHDIEIQGDWAVIDSRVDGVIDGRRTHTQLRVESIKIDGKWFDHEVTLE”, with 0.398.
Then “DEDRKMAEHWIRIWYHLVETGDEEEINNFADPHTRMEVNGVEFHGRELVKHSNHKLLRDAGVDKIHVEIHEMRVIGNKVEIHGTIRFNGQEYHFILIVLKVNGRWVIESMKHE”, with 0.724; and “DEDRKNEEIAEKIQLRVLKTGDEDELHHLVDPNVKLHIDGREFHGMELSTHLLSRWHEKYKGLKWRLRDSQSQGDFVIIHFHVHVNGKRLRFVVIARKVDGRWVVEEIELE”, with 1.4; and “DEDRKTVELAERLLKEMFDTGDEHTMRSLLDPNVRSNIGDWEFIGMDELSRWFEEVLKKLGVDHRSLKIKRSHTIGDKVILRSTLEFQQGDKTMKVDMRLVATKINGRWTVEEVEMK”, with 0.81.
For “DEDRKVAEEVIRIITHESRTGDWDRISENLDPDARVEVDGRHVHGRERFVEFVLHARIEHSHVHDVSMINGRLKVDTELRGIWNGREIDTQVYIISLKIDGRWYLESIHIS”, the protease stability score worked out at 1.34.
Then “DEDRKYVEELMRKIWEAMHTGDEKFFNNLADPHYRLRIGDKNFIGRDEFHKFLRHIRMTVEDFQERDSDEIDGVIIIIGETTYIFIVNGQEKHHVVEVEIIIIKIDGRWLLHSVNIH”, with 1.27; and “DEDRLREQATNFIEAMQTGDTKRVDEQIDKDAQLVVGEKKYEGREQISTFVKEMHHQFDHVRLQRVTVSGNKVLLDVVMDFNGKDLRINIVIHMNNGKISQVQVDYTNPEDAKTARG”, with 0.914; and “DEDRQDAEYALRLWLETWVTGDEDTLLRLMDPHYRLEIGEYHRHGRENVVTFLRFLVEHLGIKHTHVEVHDLDSQGDKVRAHTTLHNKYNGVELVIDSEIILTKINGRWYFKSMHFG”, with 1.2.
For “DEDRRDAEEFIRLFHEAVQTGDEDTLRKFIDPRARIDVNGRILHGREEYLEWMREVLRFFKNVRFEVDLHDVKIVGDKIHVDTTLWTHFNGRDLELKTRVHLEKVNGVWRIKRIDFE” the value was 0.77; for “DEDRRDAEYARDIWTETLETGDEDLLHELMDPHVRIEIGDKETHGRENYVKKFIRMGVRLKHRNDKHVTIVNGRVHLFGEFHVIINGRHHDLRVEIVIEKVNGRWVVKSIHVH”, 0.688; for “DEDRRDIDDFLRLMLEATHTGDFKSFLELADPNMRIQIGDKEMVGRENIERWFEEDHRQAGIQRVETELRVRSKLLIGNKMHVDIEIRRRYNGVEEVYDVELILLKYNGVWWLEEFRVR”, 1.58.
As for “DEDRREVQRFIESVVHAIRTGDWRRILELADPNTRLDFDGKVFHGMHVSVKRIIEELEKVKGLRIKDMTTDSVNIYNGVVELDGTLDLEIGDYESHVSAKFVLLKFNGRWFIHEESTR”, the protease stability score came to 1.59.
